Experimental data published in patent US20050222029A1 (MYRIAD GENETICS, published 2005).

Tests used:
[1] = molecular target: T1, GTPase-activiating protein 1 1419-1657 (human, UniProt P46940 1419-1657); experiment: yeast two-hybrid
T1 construct: prey (Gal4 AD-HA fusion); also called IQGAP1; IQGAP
T1 sequence (looked up): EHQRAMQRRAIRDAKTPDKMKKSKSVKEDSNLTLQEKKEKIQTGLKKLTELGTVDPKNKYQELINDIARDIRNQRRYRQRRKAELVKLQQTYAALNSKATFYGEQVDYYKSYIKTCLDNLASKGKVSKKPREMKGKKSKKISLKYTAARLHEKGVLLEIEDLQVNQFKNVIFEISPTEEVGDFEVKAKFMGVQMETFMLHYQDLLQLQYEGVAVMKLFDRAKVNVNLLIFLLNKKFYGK

[2] = molecular target: T2, GTPase-activiating protein 1 1299-1555 (human, UniProt P46940 1299-1555); experiment: yeast two-hybrid
T2 construct: prey (Gal4 AD-HA fusion); also called IQGAP1; IQGAP
T2 sequence (looked up): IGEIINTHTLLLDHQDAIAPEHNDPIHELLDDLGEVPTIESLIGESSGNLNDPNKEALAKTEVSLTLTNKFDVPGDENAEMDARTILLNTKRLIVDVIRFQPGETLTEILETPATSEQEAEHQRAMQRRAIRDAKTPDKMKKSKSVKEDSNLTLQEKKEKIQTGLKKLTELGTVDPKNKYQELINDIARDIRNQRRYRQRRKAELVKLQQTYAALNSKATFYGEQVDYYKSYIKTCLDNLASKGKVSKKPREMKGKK

[3] = molecular target: T3, Mitotic spindle coiled-coil related protein 701-1082 (human, UniProt Q96R06 701-1082); experiment: yeast two-hybrid
T3 construct: prey (Gal4 AD-HA fusion)
T3 sequence (looked up): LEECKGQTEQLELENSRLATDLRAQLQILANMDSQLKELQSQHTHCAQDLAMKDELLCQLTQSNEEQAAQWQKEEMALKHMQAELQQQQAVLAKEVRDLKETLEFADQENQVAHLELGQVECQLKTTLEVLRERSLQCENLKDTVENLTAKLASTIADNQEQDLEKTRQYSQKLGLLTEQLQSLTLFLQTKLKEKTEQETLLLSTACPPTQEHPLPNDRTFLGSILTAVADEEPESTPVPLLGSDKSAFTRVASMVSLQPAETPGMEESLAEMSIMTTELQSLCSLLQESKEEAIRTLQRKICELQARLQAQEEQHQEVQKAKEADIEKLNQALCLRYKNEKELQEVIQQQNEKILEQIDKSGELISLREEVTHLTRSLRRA

[4] = molecular target: T4, Mitotic spindle coiled-coil related protein 723-1012 (human, UniProt Q96R06 723-1012); experiment: yeast two-hybrid
T4 construct: prey (Gal4 AD-HA fusion)
T4 sequence (looked up): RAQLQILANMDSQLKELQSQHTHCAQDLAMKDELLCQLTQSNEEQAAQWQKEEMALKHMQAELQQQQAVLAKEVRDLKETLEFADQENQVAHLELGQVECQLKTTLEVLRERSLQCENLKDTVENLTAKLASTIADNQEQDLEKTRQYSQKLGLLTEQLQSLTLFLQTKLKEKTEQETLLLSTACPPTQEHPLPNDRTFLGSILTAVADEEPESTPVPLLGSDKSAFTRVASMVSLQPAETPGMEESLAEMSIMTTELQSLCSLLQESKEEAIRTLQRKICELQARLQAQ

Keratin 8 147-406 = molecular target: T5, Keratin 8 147-406 (human, UniProt P05787 147-406); experiment: yeast two-hybrid
T5 construct: prey (Gal4 AD-HA fusion)
T5 sequence (looked up): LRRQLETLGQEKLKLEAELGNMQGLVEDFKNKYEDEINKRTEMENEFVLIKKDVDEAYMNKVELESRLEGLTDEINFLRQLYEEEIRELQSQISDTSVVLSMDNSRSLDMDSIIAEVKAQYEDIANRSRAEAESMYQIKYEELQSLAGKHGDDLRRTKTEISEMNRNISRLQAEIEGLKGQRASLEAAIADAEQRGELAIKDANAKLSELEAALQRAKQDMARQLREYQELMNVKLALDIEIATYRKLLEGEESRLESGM

Intersection 1 387-611 = molecular target: T6, Intersection 1 387-611 (human, UniProt Q15811 387-611); experiment: yeast two-hybrid
T6 construct: prey (Gal4 AD-HA fusion); also called Intersectin 1; ITSN1
T6 sequence (looked up): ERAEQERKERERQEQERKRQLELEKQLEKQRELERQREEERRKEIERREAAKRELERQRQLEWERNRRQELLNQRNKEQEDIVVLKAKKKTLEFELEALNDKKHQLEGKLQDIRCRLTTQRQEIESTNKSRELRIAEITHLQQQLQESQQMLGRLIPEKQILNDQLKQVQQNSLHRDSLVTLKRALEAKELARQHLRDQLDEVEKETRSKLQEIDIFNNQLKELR

[5] = molecular target: T7, GTPase-activiating protein 1 1392-1657 (human, UniProt P46940 1392-1657); experiment: yeast two-hybrid
T7 construct: prey (Gal4 AD-HA fusion); also called IQGAP1; IQGAP
T7 sequence (looked up): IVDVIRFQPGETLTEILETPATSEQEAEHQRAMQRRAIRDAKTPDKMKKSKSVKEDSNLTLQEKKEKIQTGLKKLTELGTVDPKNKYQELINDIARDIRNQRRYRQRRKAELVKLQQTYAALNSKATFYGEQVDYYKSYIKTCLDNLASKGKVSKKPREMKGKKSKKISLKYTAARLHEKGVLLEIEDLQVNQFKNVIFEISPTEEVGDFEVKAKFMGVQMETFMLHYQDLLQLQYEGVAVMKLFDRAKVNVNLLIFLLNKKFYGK

[6] = molecular target: T8, GTPase-activiating protein 1 1308-1606 (human, UniProt P46940 1308-1606); experiment: yeast two-hybrid
T8 construct: prey (Gal4 AD-HA fusion); also called IQGAP1; IQGAP
T8 sequence (looked up): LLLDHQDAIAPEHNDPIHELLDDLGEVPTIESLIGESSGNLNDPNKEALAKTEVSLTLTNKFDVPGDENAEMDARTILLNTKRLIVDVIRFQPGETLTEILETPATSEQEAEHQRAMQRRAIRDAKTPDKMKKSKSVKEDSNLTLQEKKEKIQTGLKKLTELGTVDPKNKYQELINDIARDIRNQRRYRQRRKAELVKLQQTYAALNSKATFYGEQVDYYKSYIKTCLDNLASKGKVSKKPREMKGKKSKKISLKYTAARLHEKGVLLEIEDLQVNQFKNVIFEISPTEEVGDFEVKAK

VPS28 protein 27-221 = molecular target: T9, VPS28 protein 27-221 (human, UniProt Q9UK41 27-221); experiment: yeast two-hybrid, breast and prostate cancer library
T9 construct: prey (Gal4 AD-HA fusion); also called vacuolar protein sorting 28
T9 sequence (looked up): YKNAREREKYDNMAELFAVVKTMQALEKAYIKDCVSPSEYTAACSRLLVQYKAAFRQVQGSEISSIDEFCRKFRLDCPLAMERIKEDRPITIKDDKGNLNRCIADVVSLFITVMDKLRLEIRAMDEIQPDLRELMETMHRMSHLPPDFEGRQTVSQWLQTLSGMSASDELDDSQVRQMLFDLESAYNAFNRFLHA

Measured: binding result

B1: Tumor Suppressor (TSG101) 240-391 (other, human, UniProt Q99816 240-390, looked up)
chain: WRMKEEMDRAQAELNALKRTEEDLKKGHQKLEEMVTRLDQEVAEVDKNIELLKKKDEELSSALEKMENQSENNDIDEVIIPTAPLYKQILNLYAEENAIEDTIFYLGEALRRGVIDLDVFLKHVRLLSRKQFQLRALMQKARKTAGLSDLY
notes: range 240-391; bait (Gal4 DBD fusion); also called TSG101 240-390
binds: all assays above
